{"source": "ChEMBL document CHEMBL1157628", "about": "“Carbonic anhydrase activators. The first activation study of a coral secretory isoform with amino acids and amines” (Bioorg Med Chem, 2010)", "key": {"[1]": {"substrate": "N[C@@H](Cc1c[nH]c2ccccc12)C(=O)O", "test": "(§1) Activity of human full length CA6 at 10 uM by stopped flow CO2 hydration assay"}, "[2]": {"substrate": "N[C@H](Cc1c[nH]c2ccccc12)C(=O)O", "test": "as §1"}}}
{"protein": "Carbonic anhydrase 6 (Homo sapiens), P23280 (protein) MRALVLLLSLFLLGGQAQHVSDWTYSEGALDEAHWPQHYPACGGQRQSPINLQRTKVRYNPSLKGLNMTGYETQAGEFPMVNNGHTVQISLPSTMRMTVADGTVYIAQQMHFHWGGASSEISGSEHTVDGIRHVIEIHIVHYNSKYKSYDIAQDAPDGLAVLAAFVEVKNYPENTYYSNFISHLANIKYPGQRTTLTGLDVQDMLPRNLQHYYTYHGSLTTPPCTENVHWFVLADFVKLSRTQVWKLENSLLDHRNKTIHNDYRRTQPLNHRVVESNFPNQEYTLGSEFQFYLHKIEEILDYLRRALN", "values": [{"measurement": "kcat", "setting": "[1]", "value": 9.5, "unit": "×10⁵ /s"}, {"measurement": "kcat", "setting": "[2]", "value": 4.8, "unit": "×10⁵ /s"}]}
